B1: T4 bacteriophage gp41 helicase (enzyme, UniProt P04530 1-475, looked up)
chain: MVEIILSHLIFDQAYFSKVWPYMDSEYFESGPAKNTFKLIKSHVNEYHSVPSINALNVALENSSFTETEYSGVKTLISKLADSPEDHSWLVKETEKYVQQRAMFNATSKIIEIQTNAELPPEKRNKKMPDVGAIPDIMRQALSISFDSYVGHDWMDDYEARWLSYMNKARKVPFKLRILNKITKGGAETGTLNVLMAGVNVGKSLGLCSLAADYLQLGHNVLYISMEMAEEVCAKRIDANMLDVSLDDIDDGHISYAEYKGKMEKWREKSTLGRLIVKQYPTGGADANTFRSLLNELKLKKNFVPTIIIVDYLGICKSCRIRVYSENSYTTVKAIAEELRALAVETETVLWTAAQVGKQAWDSSDVNMSDIAESAGLPATADFMLAVIETEELAAAEQQLIKQIKSRYGDKNKWNKFLMGVQKGNQKWVEIEQDSTPTEVNEVAGSQQIQAEQNRYQRNESTRAQLDALANELKF
notes: gp41 helicase of T4 bacteriophage, wild type; NTD (globular subdomain and helical hairpin), linking helix and RecA-like CTD; Hexamer assembled with ATPγS; also called WT gp41 helicase; T4 helicase
B2: T4 bacteriophage gp41 helicase E227Q (enzyme, UniProt P04530 1-475, looked up)
chain: MVEIILSHLIFDQAYFSKVWPYMDSEYFESGPAKNTFKLIKSHVNEYHSVPSINALNVALENSSFTETEYSGVKTLISKLADSPEDHSWLVKETEKYVQQRAMFNATSKIIEIQTNAELPPEKRNKKMPDVGAIPDIMRQALSISFDSYVGHDWMDDYEARWLSYMNKARKVPFKLRILNKITKGGAETGTLNVLMAGVNVGKSLGLCSLAADYLQLGHNVLYISMQMAEEVCAKRIDANMLDVSLDDIDDGHISYAEYKGKMEKWREKSTLGRLIVKQYPTGGADANTFRSLLNELKLKKNFVPTIIIVDYLGICKSCRIRVYSENSYTTVKAIAEELRALAVETETVLWTAAQVGKQAWDSSDVNMSDIAESAGLPATADFMLAVIETEELAAAEQQLIKQIKSRYGDKNKWNKFLMGVQKGNQKWVEIEQDSTPTEVNEVAGSQQIQAEQNRYQRNESTRAQLDALANELKF
notes: gp41 helicase of T4 bacteriophage with E227Q in the walker-B motif (no ATP hydrolysis); PDB 8DTP is the wild-type parent; also called gp41(E227Q)

Key:
gp41 helicase [1] = molecular target: T1, gp41 helicase (Tequatrovirus T4, UniProt P04530); experiment: cryo-EM structure; type: binding; settings: five of six nucleotide sites at CTD-CTD interfaces occupied; 5 mM ATPγS, 10 mM MgCl2, pH 7.8; open spiral without ssDNA (8DUO) or with ssDNA (8DUE), closed ring with ssDNA (8DTP)
T1 construct: gene 41; full-length, intein fusion self-cleaved, E. coli BL21(DE3); homohexamer, without or with ssDNA
T1 sequence (P04530 1-475): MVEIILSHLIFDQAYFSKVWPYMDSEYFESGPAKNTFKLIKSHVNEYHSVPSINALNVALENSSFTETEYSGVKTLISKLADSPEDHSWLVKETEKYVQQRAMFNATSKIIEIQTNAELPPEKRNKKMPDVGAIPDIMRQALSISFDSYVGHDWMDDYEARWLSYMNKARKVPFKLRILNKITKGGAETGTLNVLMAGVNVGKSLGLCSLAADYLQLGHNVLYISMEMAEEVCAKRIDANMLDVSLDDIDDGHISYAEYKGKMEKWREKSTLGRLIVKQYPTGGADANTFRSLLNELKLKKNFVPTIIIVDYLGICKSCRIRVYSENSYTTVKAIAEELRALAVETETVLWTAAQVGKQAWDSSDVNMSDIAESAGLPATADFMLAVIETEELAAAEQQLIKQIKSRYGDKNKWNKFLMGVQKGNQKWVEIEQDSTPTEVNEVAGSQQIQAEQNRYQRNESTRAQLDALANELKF

[2] = molecular target: T2, T4 primosome (gp41 helicase-gp61 primase) (Tequatrovirus T4, UniProt P04530); experiment: cryo-EM structure; type: binding; settings: WT primosome with ssDNA, closed-ring gp41; 5 mM ATPγS, 10 mM MgCl2, pH 7.8; sites on gp41
T2 construct: gene 41; full-length proteins, intein fusions self-cleaved, E. coli BL21(DE3); 6:1 helicase:primase on ssDNA; with DNA primase
T2 sequence (P04530 1-475): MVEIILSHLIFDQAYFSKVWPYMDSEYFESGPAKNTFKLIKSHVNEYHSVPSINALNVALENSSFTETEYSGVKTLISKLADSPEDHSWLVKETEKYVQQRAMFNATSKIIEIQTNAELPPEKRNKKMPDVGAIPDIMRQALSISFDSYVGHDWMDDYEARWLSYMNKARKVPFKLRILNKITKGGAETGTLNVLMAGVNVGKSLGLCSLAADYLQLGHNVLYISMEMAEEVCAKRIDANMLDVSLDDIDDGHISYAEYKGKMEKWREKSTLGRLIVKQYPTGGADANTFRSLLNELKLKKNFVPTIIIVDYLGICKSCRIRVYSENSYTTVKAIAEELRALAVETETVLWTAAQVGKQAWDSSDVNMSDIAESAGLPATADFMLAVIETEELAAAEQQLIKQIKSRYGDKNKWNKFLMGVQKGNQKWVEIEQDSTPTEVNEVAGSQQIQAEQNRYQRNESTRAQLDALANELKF
T2 sequence (P04520 1-342 partner): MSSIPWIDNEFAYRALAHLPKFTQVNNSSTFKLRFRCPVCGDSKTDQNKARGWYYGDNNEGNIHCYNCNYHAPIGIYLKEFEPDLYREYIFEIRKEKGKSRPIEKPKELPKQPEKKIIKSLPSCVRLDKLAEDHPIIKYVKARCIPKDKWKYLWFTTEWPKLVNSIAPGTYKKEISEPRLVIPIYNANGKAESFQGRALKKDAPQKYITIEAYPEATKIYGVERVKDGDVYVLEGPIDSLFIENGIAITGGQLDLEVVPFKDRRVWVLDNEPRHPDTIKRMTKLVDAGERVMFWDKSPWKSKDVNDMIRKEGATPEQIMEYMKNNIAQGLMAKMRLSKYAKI

[3] = molecular target: the molecule itself; experiment: cryo-EM structure; step 1: 6 uM gp41 helicase with 5 mM ATPγS, no DNA; 20 mM HEPES pH 7.8, 100 mM NaCl, 10 mM MgCl2, 2 mM DTT; 30 min at room temperature
[4] = molecular target: the molecule itself; experiment: cryo-EM structure; primosome assembled from gp41 E227Q helicase, WT gp61 primase and the ssDNA/RNA primer substrate; helicase and primase regions refined separately
[5] = molecular target: B2; experiment: as above; settings: both partners purified
[6] = molecular target: B1; experiment: cryo-EM structure; step 3: 6 uM gp41 helicase, 5 mM ATPγS, 12 uM ssDNA/RNA primer substrate and 3 uM gp61 primase; 20 mM HEPES pH 7.8, 100 mM NaCl, 10 mM MgCl2, 2 mM DTT; 30 min at room temperature; settings: both partners purified
[7] = molecular target: T3, gp41(E227Q) helicase;gp61 primase (Escherichia phage T4 (T4 …, UniProt P04530;P04520 1-475;1-342, E227Q|)); experiment: cryo-EM; mutant primosome, post primer synthesis; composite map, RNA/DNA hybrid seen; Cryo-EM with ATPgS (stated for gp41 and WT primosome); assembly buffer and temperature not in the material; cryo-EM proteins purified in HEPES pH 7.8 buffers; settings: protein: recombinant;recombinant; tags: none (intein tag self-cleaved);none (intein tag self-cleaved); chain copies: 6;1; 70-nt DNA (strand 1) annealed to 5-nt RNA (strand 2) at internal TCGGC; single-stranded DNA on both sides
T3 sequence 1: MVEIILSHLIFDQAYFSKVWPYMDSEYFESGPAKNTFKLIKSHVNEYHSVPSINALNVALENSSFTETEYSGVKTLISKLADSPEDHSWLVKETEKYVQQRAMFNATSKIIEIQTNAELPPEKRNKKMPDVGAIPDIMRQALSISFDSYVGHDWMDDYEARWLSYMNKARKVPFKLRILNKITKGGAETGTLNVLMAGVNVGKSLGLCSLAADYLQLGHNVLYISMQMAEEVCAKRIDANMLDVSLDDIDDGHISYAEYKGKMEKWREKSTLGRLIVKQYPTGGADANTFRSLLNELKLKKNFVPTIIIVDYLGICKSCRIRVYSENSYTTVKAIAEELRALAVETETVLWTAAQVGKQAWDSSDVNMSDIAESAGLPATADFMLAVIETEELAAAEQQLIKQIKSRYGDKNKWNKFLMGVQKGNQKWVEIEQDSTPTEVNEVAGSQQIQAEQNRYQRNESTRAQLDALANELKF
T3 sequence 2: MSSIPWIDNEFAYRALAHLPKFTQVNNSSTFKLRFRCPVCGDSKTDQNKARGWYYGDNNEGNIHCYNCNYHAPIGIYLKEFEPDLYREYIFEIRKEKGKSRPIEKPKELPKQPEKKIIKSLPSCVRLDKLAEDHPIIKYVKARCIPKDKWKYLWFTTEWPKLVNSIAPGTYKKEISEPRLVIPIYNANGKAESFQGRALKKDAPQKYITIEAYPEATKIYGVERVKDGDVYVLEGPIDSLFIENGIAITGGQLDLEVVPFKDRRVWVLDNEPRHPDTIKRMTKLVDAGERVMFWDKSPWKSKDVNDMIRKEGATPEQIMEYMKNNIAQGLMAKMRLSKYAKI

[8] = molecular target: T4, gp41 helicase;gp61 primase (Escherichia phage T4 (T4 …, UniProt P04530;P04520 1-475;1-342, |)); experiment: cryo-EM; ATPgS; WT primosome pose 1; ssDNA seen, no RNA primer density; Cryo-EM with ATPgS (stated for gp41 and WT primosome); assembly buffer and temperature not in the material; cryo-EM proteins purified in HEPES pH 7.8 buffers; settings: protein: recombinant;recombinant; tags: none (intein tag self-cleaved);none (intein tag self-cleaved); chain copies: 6;1; 70-nt DNA (strand 1) annealed to 5-nt RNA (strand 2) at internal TCGGC; single-stranded DNA on both sides
T4 sequence 1: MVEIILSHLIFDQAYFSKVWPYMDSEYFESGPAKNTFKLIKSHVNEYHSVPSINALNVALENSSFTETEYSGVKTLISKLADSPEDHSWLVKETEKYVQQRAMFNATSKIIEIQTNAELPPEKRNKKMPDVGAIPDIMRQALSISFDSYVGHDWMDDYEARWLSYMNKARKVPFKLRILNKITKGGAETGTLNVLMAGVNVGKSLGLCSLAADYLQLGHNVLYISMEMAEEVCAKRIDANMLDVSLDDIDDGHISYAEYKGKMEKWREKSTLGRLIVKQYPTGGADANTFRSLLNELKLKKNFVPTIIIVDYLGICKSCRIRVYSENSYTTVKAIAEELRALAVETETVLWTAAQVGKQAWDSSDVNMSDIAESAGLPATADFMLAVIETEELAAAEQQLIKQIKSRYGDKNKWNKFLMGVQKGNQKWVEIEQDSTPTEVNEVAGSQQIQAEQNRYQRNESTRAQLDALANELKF
T4 sequence 2: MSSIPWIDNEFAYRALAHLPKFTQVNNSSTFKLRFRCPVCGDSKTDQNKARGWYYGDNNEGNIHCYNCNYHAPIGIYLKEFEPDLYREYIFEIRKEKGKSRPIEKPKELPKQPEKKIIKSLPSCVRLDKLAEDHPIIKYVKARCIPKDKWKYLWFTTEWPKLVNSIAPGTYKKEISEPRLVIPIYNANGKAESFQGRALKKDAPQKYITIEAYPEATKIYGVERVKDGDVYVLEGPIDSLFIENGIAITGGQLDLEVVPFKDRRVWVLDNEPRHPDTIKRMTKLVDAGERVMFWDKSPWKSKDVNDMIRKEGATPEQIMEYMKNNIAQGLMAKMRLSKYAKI

gp41 helicase [9] = molecular target: T5, gp41 helicase (Escherichia phage T4 (T4 bacteriophage), UniProt P04530 1-475); experiment: cryo-EM; ATPgS; open spiral, 10 nt ssDNA held; RNA primer not resolved; Cryo-EM with ATPgS (stated for gp41 and WT primosome); assembly buffer and temperature not in the material; cryo-EM proteins purified in HEPES pH 7.8 buffers; settings: protein: recombinant; tags: none (intein tag self-cleaved); chain copies: 6; 70-nt DNA (strand 1) annealed to 5-nt RNA (strand 2) at internal TCGGC; single-stranded DNA on both sides
T5 sequence: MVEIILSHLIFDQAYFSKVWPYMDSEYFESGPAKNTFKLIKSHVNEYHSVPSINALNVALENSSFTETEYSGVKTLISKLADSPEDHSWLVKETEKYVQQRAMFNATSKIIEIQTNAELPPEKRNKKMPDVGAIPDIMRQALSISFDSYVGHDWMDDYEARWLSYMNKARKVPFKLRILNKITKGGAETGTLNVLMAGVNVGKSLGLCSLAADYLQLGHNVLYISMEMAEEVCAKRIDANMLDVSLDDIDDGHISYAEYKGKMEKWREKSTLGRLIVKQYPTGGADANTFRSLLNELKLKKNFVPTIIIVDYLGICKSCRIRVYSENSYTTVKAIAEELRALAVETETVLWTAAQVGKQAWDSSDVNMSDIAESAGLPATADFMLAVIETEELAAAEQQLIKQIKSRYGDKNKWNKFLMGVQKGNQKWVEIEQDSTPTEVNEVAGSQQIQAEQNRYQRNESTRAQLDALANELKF

Question: Nc1ncnc2c1ncn2[C@@H]1O[C@H](COP(=O)(O)OP(=O)(O)OP(O)(O)=S)[C@@H](O)[C@H]1O [ATPγS] was tested. Which cryo-EM structure (gp41 helicase [1]) did it give?
Answer: five nucleotide binding pockets at the subunit interfaces occupied with ATPγS molecules

Question: And the cryo-EM structure [2]?
Answer: observed in the T4 primosome in the presence of ssDNA and ATPγS

Question: B1 was tested. Which “stoichiometry N” value [3] did it give?
Answer: 6 subunits

Question: Does B2 bind [4]?
Answer: binds

B3: T4 bacteriophage gp61 primase (enzyme, UniProt P04520 1-342, looked up)
chain: MSSIPWIDNEFAYRALAHLPKFTQVNNSSTFKLRFRCPVCGDSKTDQNKARGWYYGDNNEGNIHCYNCNYHAPIGIYLKEFEPDLYREYIFEIRKEKGKSRPIEKPKELPKQPEKKIIKSLPSCVRLDKLAEDHPIIKYVKARCIPKDKWKYLWFTTEWPKLVNSIAPGTYKKEISEPRLVIPIYNANGKAESFQGRALKKDAPQKYITIEAYPEATKIYGVERVKDGDVYVLEGPIDSLFIENGIAITGGQLDLEVVPFKDRRVWVLDNEPRHPDTIKRMTKLVDAGERVMFWDKSPWKSKDVNDMIRKEGATPEQIMEYMKNNIAQGLMAKMRLSKYAKI
notes: gp61 primase of T4 bacteriophage, wild type; N-terminal ZBD and C-terminal RPD joined by a linker loop (Lys97 to Lys115); the models hold a resolved full-length primase; also called WT gp61 primase; T4 primase
Question: Does B3 bind [5]?
Answer: binds

Question: What about the “stoichiometry N” value [6] of the same molecule?
Answer: 1 gp61 primase per gp41 helicase hexamer

B4: ssDNA template/pentaribonucleotide primer (DNA:RNA)
DNA: GAATGAGGAGTAGTAGTGAATGTAGTGAGGTAATATCGGCTGGTCTGGTCTGTGCCAAGTTGCTGCAAAA
?: GCCGA
modifications: RNA primer 5'-triphosphate
Question: Which results are given for B4?
Answer: binding result [7]: binds; binding result [8]: binds; binding result (gp41 helicase [9]): binds
